US20260234276A1

Legend:
human CCR8 (human) [1] = molecular target: human CCR8 (human) (UniProt P51685); test: flow cytometry on lymphocytes from ascitic ovarian cancer, 1 µg mAb
human CCR8 (human) [2] = molecular target: human CCR8 (human) (UniProt P51685); test: flow cytometry on lymphocytes from ascitic ovarian cancer, 0.1 µg mAb
human CCR8 (human) [3] = molecular target: human CCR8 (human) (UniProt P51685); test: flow cytometry on lymphocytes from ascitic ovarian cancer, 0.5 µg mAb
human CCR8 (human) [4] = molecular target: human CCR8 (human) (UniProt P51685); test: flow cytometry, hCCR8 transfected CHOK1 cells

Positive cells (human CCR8 (human) [1]) [%]	Positive cells (human CCR8 (human) [2]) [%]	Positive cells (human CCR8 (human) [3]) [%]	% positive cells (human CCR8 (human) [4]) [%]	MFI fold change to isotype ctrl (human CCR8 (human) [4]) [fold]	Substance
5.06	2.94	3.81	–	–	Isotype ctrl (antibody)
8.64	9.5	–	86.5	19.8	L263G8 (antibody)
